From patent publication US20140017235A1

Target: human NGF (human), P01138
Assay: cell-based or functional assay

human NGF (human), P01138, sequence (P01138 122-241 limits assumed): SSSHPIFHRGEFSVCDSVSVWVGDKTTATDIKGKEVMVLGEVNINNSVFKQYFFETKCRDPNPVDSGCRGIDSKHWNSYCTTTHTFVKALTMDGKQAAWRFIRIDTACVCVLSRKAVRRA

B1: antibody E3 (full antibody) (antibody, human IgG2, kappa)
heavy: QVQLQESGPGLVKPSETLSLTCTVSGFSLIGYDLNWIRQPPGKGLEWIGIIWGDGTTDYNSAVKSRVTISKDTSKNQFSLKLSSVTAADTAVYYCARGGYWYATSYYFDYWGQGTLVTVSSASTKGPSVFPLAPCSRSTSESTAALGCLVKDYFPEPVTVSWNSGALTSGVHTFPAVLQSSGLYSLSSVVTVPSSNFGTQTYTCNVDHKPSNTKVDKTVERKCCVECPPCPAPPVAGPSVFLFPPKPKDTLMISRTPEVTCVVVDVSHEDPEVQFNWYVDGVEVHNAKTKPREEQFNSTFRVVSVLTVVHQDWLNGKEYKCKVSNKGLPSSIEKTISKTKGQPREPQVYTLPPSREEMTKNQVSLTCLVKGFYPSDIAVEWESNGQPENNYKTTPPMLDSDGSFFLYSKLTVDKSRWQQGNVFSCSVMHEALHNHYTQKSLSLSPGK
light: not shown
modifications: not checked
  antibody concentration that totally blocked NGF-elicited survival of trigeminal neurons: 20 nM
